First the molecules themselves.
T1: interleukin-23 receptor (IL-23R), Q5VWK5
T1 chain: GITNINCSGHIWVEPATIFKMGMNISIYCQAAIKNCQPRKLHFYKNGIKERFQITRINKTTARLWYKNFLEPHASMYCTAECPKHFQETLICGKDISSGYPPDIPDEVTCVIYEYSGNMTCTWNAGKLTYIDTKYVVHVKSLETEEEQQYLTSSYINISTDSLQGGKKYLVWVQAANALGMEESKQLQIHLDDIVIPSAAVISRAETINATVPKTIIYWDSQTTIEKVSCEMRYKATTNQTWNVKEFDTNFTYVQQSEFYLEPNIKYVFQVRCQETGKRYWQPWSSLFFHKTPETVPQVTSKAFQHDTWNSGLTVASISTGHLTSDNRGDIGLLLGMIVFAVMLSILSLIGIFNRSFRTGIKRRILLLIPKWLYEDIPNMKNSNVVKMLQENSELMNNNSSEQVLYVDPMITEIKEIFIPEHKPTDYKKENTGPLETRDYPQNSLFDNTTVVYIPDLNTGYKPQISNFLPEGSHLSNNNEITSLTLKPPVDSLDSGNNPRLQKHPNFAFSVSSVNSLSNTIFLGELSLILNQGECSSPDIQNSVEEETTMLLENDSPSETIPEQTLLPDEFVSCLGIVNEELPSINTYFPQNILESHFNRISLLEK

B1: SEQ ID NO: 92 (peptide)
peptide: R[Pen]NT[Trp(7-Me)]K(Ac)[Pen][2‑amino‑3‑(4-(2-aminoethoxy)phenyl)propanoic acid][2‑amino‑3‑(6-hydroxynaphthalen-2-yl)propanoic acid][Thp]EN[3Pal][Sar]K
modifications: disulfide 2-7 (inferred); not fully specified (residue 15); ends not checked; also: K15: lipidated lysine, lipid not given here
B2: SEQ ID NO: 120 (peptide)
peptide: R[Pen]NT[Trp(7-Me)]K[Pen][AEF][2Nal(6-OH)][Thp]EN[3Pal][Sar]
modifications: disulfide 2-7 (inferred); ends not checked; also: K6: lipidated lysine, lipid not given here
B3: SEQ ID NO: 91 (peptide)
peptide: K[Pen]NT[Trp(7-Me)]K(Ac)[Pen][2‑amino‑3‑(4-(2-aminoethoxy)phenyl)propanoic acid][2‑amino‑3‑(6-hydroxynaphthalen-2-yl)propanoic acid][Thp]EN[3Pal][Sar]
modifications: disulfide 2-7 (inferred); not fully specified (residue 1); ends not checked; also: K1: lipidated lysine, lipid not given here
B4: SEQ ID NO: 90 (peptide)
peptide: K[Pen]NT[Trp(7-Me)]K(Ac)[Pen][2‑amino‑3‑(4-(2-aminoethoxy)phenyl)propanoic acid][2‑amino‑3‑(6-hydroxynaphthalen-2-yl)propanoic acid][Thp]EN[3Pal][Sar]
modifications: disulfide 2-7 (inferred); not fully specified (residue 1); ends not checked; also: K1: lipidated lysine, lipid not given here
B5: SEQ ID NO: 130 (peptide)
peptide: [Pen]NT[Trp(7-Me)]K[Pen][AEF][2Nal(6-OH)][Thp]K(Ac)N[3Pal][Sar]
modifications: disulfide 1-6 (inferred); ends not checked; also: K5: lipidated lysine, lipid not given here
B6: SEQ ID NO: 89 (peptide)
peptide: R[Pen]KT[Trp(7-Me)]K(Ac)[Pen][2‑amino‑3‑(4-(2-aminoethoxy)phenyl)propanoic acid][2‑amino‑3‑(6-hydroxynaphthalen-2-yl)propanoic acid][Thp]EN[3Pal][Sar]
modifications: disulfide 2-7 (inferred); not fully specified (residue 3); ends not checked; also: K3: lipidated lysine, lipid not given here
B7: SEQ ID NO: 95 (peptide)
peptide: [Pen]NT[Trp(7-Me)]K(Ac)[Pen][AEF][2Nal(6-OH)][Thp]KN[3Pal][Sar]
modifications: disulfide 1-6 (inferred); not fully specified (residue 10); ends not checked; also: K10: lipidated lysine, lipid not given here

Starred links: 1 amine or outer side, 2 acyl side, 3 side chain; linkers in the order of their positions; H or OH if unused. Positions of bridges follow the written chain, without caps; N, C: chain ends. Non-standard residues stand in square brackets, D forms with d. No end group written: not given here. *: point of attachment. X1 = 3‑(7-(3-acetamidophenyl)-1H-indol-3-yl)‑2‑aminopropanoic acid, CC(=O)Nc1cccc(-c2cccc3c(CC(N[*:1])C(=O)[*:2])c[nH]c23)c1; X3 = 4‑(2-(4-(2-amino-2-carboxyethyl)phenoxy)ethyl)‑4‑methylmorpholin‑4‑ium, C[N+]1(CCOc2ccc(CC(N[*:1])C(=O)[*:2])cc2)CCOCC1; X10 = 2‑amino‑3‑(4-(2-guanidinoethoxy)phenyl)propanoic acid, N=C(N)NCCOc1ccc(CC(N[*:1])C(=O)[*:2])cc1; X7 = 2‑amino‑3‑(5-methylpyridin-3-yl)propanoic acid, Cc1cncc(CC(N[*:1])C(=O)[*:2])c1; Trp(7-(3-AcNH-Ph)) = CC(=O)Nc1cccc(-c2cccc3c(C[C@H](N)C(=O)O)c[nH]c23)c1; 2Nal(6-OH) = N[C@@H](Cc1ccc2cc(O)ccc2c1)C(=O)O; Trp(7-Me) = Cc1cccc2c(C[C@H](N)C(=O)O)c[nH]c12; dLys(Me3) = C[N+](C)(C)CCCC[C@@H](N)C(=O)O; AEF = NCCOc1ccc(C[C@H](N)C(=O)O)cc1; 3Pal = N[C@@H](Cc1cccnc1)C(=O)O; Pen = CC(C)(S)[C@H](N)C(=O)O; αMeC = C[C@](N)(CS)C(=O)O; Thp = NC1(C(=O)O)CCOCC1; Abu = CC[C@H](N)C(=O)O; Propionyl = CCC(=O)*; Sar = CNCC(=O)O

The assay addresses T1, interleukin-23 receptor (IL-23R), Q5VWK5. The assay can be described thus: cell-based or functional assay.
[Pen]NT[X1]K(Ac)[Pen][X10][2‑amino‑3‑(6-hydroxynaphthalen-2-yl)propanoic acid][Thp]EN[X7][Sar] (ends and bridges not checked) [SEQ ID NO: 16] registered an IL23R Reporter Assay IC50 below 10 nM and a PBMC pSTAT3 IC50 below 10 pM.
The corresponding values for [dLys(Me3)][Pen]NT[X1]K(Ac)[Pen][5‑(4-(2-amino-2-carboxyethyl)phenoxy)‑N,N,N‑trimethylpentan‑1‑aminium][2‑amino‑3‑(6-hydroxynaphthalen-2-yl)propanoic acid][Thp]EN[X7][Sar] (ends and bridges not checked) [SEQ ID NO: 17] are below 10 nM and below 10 pM.
In the case of R[Pen]NT[Trp(7-Me)]K(Ac)[Pen][AEF][2Nal(6-OH)][Thp]EN[3Pal][Sar] (disulfide 2-7 (inferred); ends not checked) [SEQ ID NO: 94], the IL23R Reporter Assay IC50 is below 10 nM and the PBMC pSTAT3 IC50 is below 1 nM.
The corresponding values for R[Pen]ET[Trp(7-Me)]K(Ac)[Pen][AEF][2Nal(6-OH)][Thp]EN[3Pal][Sar] (disulfide 2-7 (inferred); ends not checked) [SEQ ID NO: 137] are below 10 nM and below 10 pM.
B1 gave an IL23R Reporter Assay IC50 below 10 nM and a PBMC pSTAT3 IC50 below 0.1 nM.
With [Pen]NT[X1]K(Ac)[Pen][AEF][2Nal(6-OH)][Thp]EN[3Pal][Sar] (disulfide 1-6 (inferred); ends not checked) [SEQ ID NO: 132], the IL23R Reporter Assay IC50 was below 10 nM and the PBMC pSTAT3 IC50 is below 10 pM.
The corresponding values for B2 are above 100 nM and below 1 nM.
In the case of [dK](Propionyl)[Abu]NTWQC[AEF][2Nal(6-OH)][Thp]CN[3Pal][Sar] (ends and bridges not checked) [SEQ ID NO: 10], the IL23R Reporter Assay IC50 is below 10 nM and the PBMC pSTAT3 IC50 was below 10 pM.
The matching figures for B3: below 10 nM and below 0.1 nM.
[dK](Me3)[Abu]NTWK(Ac)[αMeC][X10][2Nal(6-OH)][Thp]EN[3Pal][Sar] (ends and bridges not checked) [SEQ ID NO: 1] had an IL23R Reporter Assay IC50 below 10 nM.
The molecule B4 registered an IL23R Reporter Assay IC50 below 10 nM and a PBMC pSTAT3 IC50 below 0.1 nM.
The matching figures for R[Pen]ET[Trp(7-Me)]K(Ac)[Pen][AEF][2Nal(6-OH)][Thp]EN[3Pal][Sar] (disulfide 2-7 (inferred); ends not checked) [SEQ ID NO: 136]: below 10 nM and below 10 pM.
The matching figures for [Abu]NTWQC[AEF][2Nal(6-OH)][Thp]EN[3Pal][Sar] (ends and bridges not checked) [SEQ ID NO: 98]: below 10 nM and below 10 pM.
Molecule [Pen]NT[Trp(7-(3-AcNH-Ph))]K(Ac)[Pen][X3][2Nal(6-OH)][Thp]EN[3Pal][Sar] (disulfide 1-6 (inferred); ends not checked) [SEQ ID NO: 100] returned an IL23R Reporter Assay IC50 below 10 nM and a PBMC pSTAT3 IC50 below 10 pM.
B5 showed an IL23R Reporter Assay IC50 above 100 nM and a PBMC pSTAT3 IC50 below 1 nM.
In turn, B6 gave an IL23R Reporter Assay IC50 below 10 nM and a PBMC pSTAT3 IC50 below 0.1 nM.
The corresponding values for B7 are below 10 nM and below 0.1 nM.

The values above are taken from patent US20240279281A1, “Peptide Inhibitors of Interleukin-23 Receptor” (Janssen Pharmaceutica NV, priority 2023, published 2024).
